Measurements: publication doi:10.1101/621219 (bioRxiv, 2019)
Several values for one entry are separate records, joined by “and”; a condition that tells them apart may be missing. Equal values may be shown once. Read-outs that look alike come from different tables or passages of the source.

What was measured:
[1] = biological target: T1, FoxA, TonB-dependent ferrioxamine B transporter from Pseudomonas aeruginosa PAO1 (full-length) (Pseudomonas aeruginosa strain PAO1, UniProt Q9I116 1-820); test: ITC
T1 sequence (looked up): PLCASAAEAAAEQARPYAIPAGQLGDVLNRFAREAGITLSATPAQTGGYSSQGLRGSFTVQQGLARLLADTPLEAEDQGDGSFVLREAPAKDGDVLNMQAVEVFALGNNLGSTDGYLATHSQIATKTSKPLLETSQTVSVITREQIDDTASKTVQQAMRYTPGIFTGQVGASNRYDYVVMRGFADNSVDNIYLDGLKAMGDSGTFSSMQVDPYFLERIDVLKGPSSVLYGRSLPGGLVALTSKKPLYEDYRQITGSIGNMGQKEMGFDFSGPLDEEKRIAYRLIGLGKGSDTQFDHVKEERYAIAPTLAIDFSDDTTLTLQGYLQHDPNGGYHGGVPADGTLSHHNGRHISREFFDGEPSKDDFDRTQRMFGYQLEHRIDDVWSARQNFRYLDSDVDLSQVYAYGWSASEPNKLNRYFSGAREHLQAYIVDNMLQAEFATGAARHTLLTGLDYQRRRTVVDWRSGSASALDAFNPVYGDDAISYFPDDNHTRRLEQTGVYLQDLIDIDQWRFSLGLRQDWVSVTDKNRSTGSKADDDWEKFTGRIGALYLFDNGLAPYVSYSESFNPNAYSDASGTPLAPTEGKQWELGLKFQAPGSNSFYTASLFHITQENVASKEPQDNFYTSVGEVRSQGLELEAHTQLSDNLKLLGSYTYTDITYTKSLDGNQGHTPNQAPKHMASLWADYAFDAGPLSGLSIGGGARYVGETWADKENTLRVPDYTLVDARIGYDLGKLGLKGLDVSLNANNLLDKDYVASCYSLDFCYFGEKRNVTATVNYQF

[2] = biological target: T1, FoxA, TonB-dependent ferrioxamine B …; test: ITC; remark: listed apart in the source

B1: C-terminal domain of TonB1 from Pseudomonas aeruginosa PAO1 (residues 251-340) (domain or fragment, Pseudomonas aeruginosa strain PAO1, UniProt Q51368 251-340, looked up)
chain: DSDIKPLRMDPPVYPRMAQARGIEGRVKVLFTITSDGRIDDIQVLESVPSRMFDREVRQAMAKWRFEPRVSGGKIVARQATKMFFFKIEK
With B1 the Kd [1] was 107 ± 30 nM, the dH [1] was -11 ± 0.3 kcal/mol and the Kd [2] was 6 nM and 6 to 10 nM. It also gave a dH [2] of -19.2 ± 0.4 kcal/mol.
